Among the data in patent EP4345113A1 (SDS Optic Spolka Akcyjna, dated 2024) are binding result and ED50 values, retold here.

The target of assay [1] is T1, recombinant HER2 ECD domain (human, UniProt P04626 23-652).
T1 construct: extracellular domain; also called extracellular domain of HER2
Briefly: Western blot. Background: In western blotting, separated proteins are transferred to a membrane and probed.

The target in assay [2] is T2, human epidermal growth factor receptor 2 (HER2), native, in SK-BR-3 and SK-OV-3 cells and cell lysates (human, UniProt P04626 23-1255).
T2 construct: whole, on cells; Detected in denatured cell lysates (Western blot) and in fixed cells (immunofluorescence); also called HER2 antigen; HER2 protein
Briefly: immunofluorescence on fixed cells.

For assay [3], the target named is HER2 antigen (as used in the ELISA binding assays and on the optoelectronic biosensors) (human) (UniProt P04626). Briefly: in vitro antigen binding curve (ELISA), half of the effective dose.
For assay [4] the target is unchanged. Briefly: direct ELISA, lot SDS-20211201 after 430 days at -80°C; amount of antibody that binds half of the available antigen.
Assay [5] has the same target. Briefly: direct ELISA, lot SDS-20211231 after 352 days at -80°C; amount of antibody that binds half of the available antigen. On the technique in general: ELISA stands for enzyme-linked immunosorbent assay.
Assay [6] has the same target. Briefly: direct ELISA, lot SDS-20220120 after 341 days at -80°C; amount of antibody that binds half of the available antigen.
Assay [7] shares this target. Briefly: direct ELISA, lot SDS-20220126 after 340 days at -80°C; amount of antibody that binds half of the available antigen.

B1: mAb anti-human-HER2/70.21.73.67 - clone 67 (antibody, V domains shown)
VH: EIQLQQSGPELVKPGASVRVSCKASGYSFTDYNMYWVRQSQGESLEWIGYIDHYNGNTGYNQKFRDKATLTVDKASSTAFMHLNSLTSEDSAVYYCARHYDYGAMDYWGQGTSVTVSS
VL: DIVMTQSQKFMSTSVGDRVSVTCKASQNVGTNVAWYQQKPGQSPKALIYSASYRYSGVPDRFTGSGSGTDFTLTISTVQSEDLAEYFCQHYYIYPLTFGAGTKLELKR
notes: Used as a biotin complex in the sandwich ELISA; No cleavage site is stated; also called mAb anti-human-HER2/clone 67; anti-HER2/70.21.73.67
Consider B1, for which the binding result in assay [1] and in assay [2] was “binds” throughout. Moreover, the ED50 in assay [3] was 0.235 nM; in assay [4], 0.0046 µg; in assay [5], 0.0043 µg; in assay [6], 0.004 µg; in assay [7] it was 0.0043 µg.

B2: mAb anti-human-HER2/70.27.58 - clone 58 (antibody, V domains shown)
VH: EVQLQQSGPELEKPGASVKISCKASGYSFTGYNMNWVKQSNGKSLEWIGTIDPNYGTSYNQKFKGKATLTVDKSSSTAYMHLKSLTSEDSSVYYCARRKVNYEAWFAFWGQGTLVTVSA
VL: DIVLTQSPASLAVSLGQRATISCRASESVDSYGNSFMHWYQQKPGQPPKLLIYRASNLESGIPARFSGSGSRTDFTLTINPVEADDVATYYCQQSNEDPFTFGSGTKLEIKR
notes: also called mAb anti-human-HER2/clone 58; anti-HER2/70.27.58
Take B2: the binding result in assay [1] and in assay [2] was “binds” each time. For the same molecule, in assay [3], the ED50 was 0.0922 nM.
